Assay: melting temperature; UV melt of duplexes

Substance: CATATTGGCCAATATG+CATATTGGCCAATATG ((((((((((((((((+))))))))))))))))
- Tm (sodium 1 M, strand 0.0001 M): 65.3 °C

Substance: ATATATAGCTATATAT+ATATATAGCTATATAT ((((((((((((((((+))))))))))))))))
- Tm (sodium 0.12 M, strand 5 µM): 39.1 °C

Substance: ATATATATAGCTTTTTTTTT+AAAAAAAAAGCTATATATAT ((((((((((((((((((((+))))))))))))))))))))
- Tm (sodium 0.12 M, strand 6 µM): 44.3 °C

Substance: AACGTGAATTCTGGCA+TGCCAGAATTCACGTT ((((((((((((((((+))))))))))))))))
- Tm (sodium 0.12 M, strand 7.4 µM): 58.3 °C

Substance: GTTATTCCGCAGTCCGATGGCAGCAGGCTC+GAGCCTGCTGCCATCGGACTGCGGAATAAC ((((((((((((((((((((((((((((((+))))))))))))))))))))))))))))))
- Tm (sodium 0.07 M, strand 2 µM): 70.6 °C
- Tm (sodium 0.12 M, strand 2 µM): 74.9 °C
- Tm (sodium 0.22 M, strand 2 µM): 78.1 °C
- Tm (sodium 0.62 M, strand 2 µM): 82.4 °C
- Tm (sodium 1.02 M, strand 2 µM): 84.1 °C

Substance: ATATATATAGCTATATATAT+ATATATATAGCTATATATAT ((((((((((((((((((((+))))))))))))))))))))
- Tm (sodium 0.12 M, strand 5 µM): 44.8 °C

Substance: AAAAAAAAAGCTTTTTTTTT+AAAAAAAAAGCTTTTTTTTT ((((((((((((((((((((+))))))))))))))))))))
- Tm (sodium 0.12 M, strand 5 µM): 51 °C

Substance: CAACTTGATATTAATA+TATTAATATCAAGTTG ((((((((((((((((+))))))))))))))))
- Tm (sodium 1 M, strand 18 µM): 52 °C

Substance: TCGGAGAAATCACTGAGCTGCCTGAGAAGA+TCTTCTCAGGCAGCTCAGTGATTTCTCCGA ((((((((((((((((((((((((((((((+))))))))))))))))))))))))))))))
- Tm (sodium 0.07 M, strand 2 µM): 66.3 °C
- Tm (sodium 0.12 M, strand 2 µM): 70.4 °C
- Tm (sodium 0.22 M, strand 2 µM): 74.1 °C
- Tm (sodium 0.62 M, strand 2 µM): 79 °C
- Tm (sodium 1.02 M, strand 2 µM): 80.9 °C

Substance: GTCCACGCCCGGTGCGACGG+CCGTCGCACCGGGCGTGGAC ((((((((((((((((((((+))))))))))))))))))))
- Tm (sodium 0.07 M, strand 2 µM): 70.9 °C
- Tm (sodium 0.12 M, strand 2 µM): 73.9 °C
- Tm (sodium 0.22 M, strand 2 µM): 77.3 °C
- Tm (sodium 0.62 M, strand 2 µM): 79.8 °C
- Tm (sodium 1.02 M, strand 2 µM): 81.1 °C

Substance: TATTGAGAACAAGTGTCCGATTAGCAGAAA+TTTCTGCTAATCGGACACTTGTTCTCAATA ((((((((((((((((((((((((((((((+))))))))))))))))))))))))))))))
- Tm (sodium 0.07 M, strand 2 µM): 61.3 °C
- Tm (sodium 0.12 M, strand 2 µM): 65.4 °C
- Tm (sodium 0.22 M, strand 2 µM): 69.6 °C
- Tm (sodium 0.62 M, strand 2 µM): 74.8 °C
- Tm (sodium 1.02 M, strand 2 µM): 76.4 °C

Substance: AATATATGATCATCGAT+ATCGATGATCATATATT (((((((((((((((((+)))))))))))))))))
- Tm (sodium 0.12 M, strand 3 µM): 50 °C

Substance: ATAAAAATGAATTCATTTTTAT+ATAAAAATGAATTCATTTTTAT ((((((((((((((((((((((+))))))))))))))))))))))
- Tm (sodium 0.12 M, strand 7 µM): 52.8 °C

Substance: CGCCGCTGCCGACTGGAGGAGCGCGGGACG+CGTCCCGCGCTCCTCCAGTCGGCAGCGGCG ((((((((((((((((((((((((((((((+))))))))))))))))))))))))))))))
- Tm (sodium 0.07 M, strand 2 µM): 77.8 °C
- Tm (sodium 0.12 M, strand 2 µM): 81.6 °C
- Tm (sodium 0.22 M, strand 2 µM): 84.6 °C
- Tm (sodium 0.62 M, strand 2 µM): 87.7 °C
- Tm (sodium 1.02 M, strand 2 µM): 88.6 °C

Substance: TTCAAGTTAAACATTCTATC+GATAGAATGTTTAACTTGAA ((((((((((((((((((((+))))))))))))))))))))
- Tm (sodium 0.07 M, strand 2 µM): 45.7 °C
- Tm (sodium 0.12 M, strand 2 µM): 49.5 °C
- Tm (sodium 0.22 M, strand 2 µM): 53.9 °C
- Tm (sodium 0.62 M, strand 2 µM): 59.4 °C
- Tm (sodium 1.02 M, strand 2 µM): 61.5 °C

Substance: CGCGCGCGACTGACTG+CAGTCAGTCGCGCGCG ((((((((((((((((+))))))))))))))))
- Tm (sodium 0.12 M, strand 44 µM): 69.4 °C

Substance: ATTGATATCCTTTTCTATTCATCTTTCATT+AATGAAAGATGAATAGAAAAGGATATCAAT ((((((((((((((((((((((((((((((+))))))))))))))))))))))))))))))
- Tm (sodium 0.07 M, strand 2 µM): 53.5 °C
- Tm (sodium 0.12 M, strand 2 µM): 58.3 °C
- Tm (sodium 0.22 M, strand 2 µM): 62.3 °C
- Tm (sodium 0.62 M, strand 2 µM): 68.6 °C
- Tm (sodium 1.02 M, strand 2 µM): 70.4 °C

Substance: TGATTCTACCTATGTGATTT+AAATCACATAGGTAGAATCA ((((((((((((((((((((+))))))))))))))))))))
- Tm (sodium 0.07 M, strand 2 µM): 49.1 °C
- Tm (sodium 0.12 M, strand 2 µM): 53.5 °C
- Tm (sodium 0.22 M, strand 2 µM): 57.4 °C
- Tm (sodium 0.62 M, strand 2 µM): 62.3 °C
- Tm (sodium 1.02 M, strand 2 µM): 64.4 °C

Substance: CGCAAAAAAAAAACGC+GCGTTTTTTTTTTGCG ((((((((((((((((+))))))))))))))))
- Tm (sodium 0.1 M, strand 4 µM): 54.1 °C

Substance: GACGACGACGACGACGACGACGACGACGAC+GTCGTCGTCGTCGTCGTCGTCGTCGTCGTC ((((((((((((((((((((((((((((((+))))))))))))))))))))))))))))))
- Tm (sodium 0.15 M, strand 0.0001 M): 83 °C

Substance: ATAACTTTACGTGTGTGACCTATTA+TAATAGGTCACACACGTAAAGTTAT (((((((((((((((((((((((((+)))))))))))))))))))))))))
- Tm (sodium 0.07 M, strand 2 µM): 56.6 °C
- Tm (sodium 0.12 M, strand 2 µM): 60.7 °C
- Tm (sodium 0.22 M, strand 2 µM): 64.7 °C
- Tm (sodium 0.62 M, strand 2 µM): 69.6 °C
- Tm (sodium 1.02 M, strand 2 µM): 71.8 °C

— the array DNA melting data of Ke et al.
